What all share (details): KSI (substrate inhibition) also fitted
Substrate in series [1]: O=C1OC2(c3ccc(OS(=O)(=O)O)cc3Oc3cc(OS(=O)(=O)O)ccc32)c2ccccc21
Nature of the series: fluorescence, Michaelis-Menten kinetics of purified enzyme. Format: biochemical, Ruegeria pomeroyi.

Substrate in series [2]: O=[N+]([O-])c1ccc(OS(=O)(=O)O)cc1
Nature of the series: purified protein.

Substrate in series [3]: O=C1OC2(c3ccc(OS(=O)(=O)O)cc3Oc3cc(OS(=O)(=O)O)ccc32)c2ccccc21
Nature of the series: purified protein.

Substitutions are numbered along the chain they refer to. Numbers in names are those of the source.

B1: SpAS1 (arylsulfatase 1 from Silicibacter pomeroyi DSS-3), purified (Ruegeria pomeroyi DSS-3) (protein)
chain: MTQNRNILWIMCDQLRFDYLSCYGHERLNTPNIDKLAKRGVRFTNAYVQATVCGPSRMSAYTGRYVRSHGSTQNGIPLRVGEPTLGDHLRDVGMRNVLIGKTHMRPDLDGMKRLGIDPDSEIGARVGEGGFDAFDRDDGVHPTGYRKKEPAYNDYLRHAGFQAENPWEFWANSAEGKGGENQSGWLLTHADKPARVPEEHSETAYMTRRAMEFMEAAEKDGRPWCAHLSYIKPHWPYIVPAPYHDMFGPDDVKPAVRSDEELKAAHPLFKAMTEEVYSRNFARDEVREKVIPAYMGLIKQIDDQLGQLFAFMQERGLDENTMIVFTADHGDYLGDHWMGEKYLFYEAAAKVPLIIYDPSDKADATRGTVSDALVEMIDLAPTFVDYAGGVPPMHILEGKSLLPLLHDDDSSWDRQYVFSELDYSNLPARLKLGRDIQDCRATMVFDGRYKLVEVMGFAPILFDLEVDPDELKDLGRDPSAEEVRQRLTSALDAWHRNTRQRITKSDAAYRALDPVLRESDPDLMAGVIIGYWDEDEVEAEKRRIARILGENS
Consider B1, for which, in series [1], the Michaelis-Menten constant (Km) (usually the substrate concentration at which the rate is half of its maximum) was determined as 4.5 ± 0.5 mM and the kcat – broadly, the maximal rate divided by the concentration of active sites – came to 0.116 ± 0.004 s⁻¹. For the same protein, in series [2], the Km worked out at 7.1 ± 1.7 mM and the kcat stood at 34 ± 5 s⁻¹.

B2: SpAS1 (arylsulfatase 1 from Silicibacter pomeroyi DSS-3), purified (Ruegeria pomeroyi DSS-3; K147E/M111T) (protein)
chain: B1 chain with M111T, K147E
Take B2: the Km in series [3] came out at 2.4 ± 0.2 mM; in series [2] it was 3.4 ± 0.3 mM. Moreover, the kcat in series [3] stood at 0.074 ± 0.002 s⁻¹; in series [2] it was 100 ± 4 s⁻¹.

B3: SpAS1 (arylsulfatase 1 from Silicibacter pomeroyi DSS-3), purified (Ruegeria pomeroyi DSS-3; R429Q) (protein)
chain: B1 chain with R429Q
B3: in series [1], the Km was found to be 1.0 ± 0.1 mM and the kcat was 0.77 ± 0.04 s⁻¹. Moreover, in series [2], the Km was found to be 7.3 ± 1.5 mM and the catalytic constant (kcat) came out at 26 ± 3 s⁻¹.

These data come from article doi:10.1101/479162v2.
